Series [1] has as its system Saccharomyces cerevisiae. Briefly: protein stability index of tFT-peptide fusion in wild type (PSI (0-1 scale)); higher = more stable (slower turnover). As to conditions: genetic background: wild type. The method, then: (§1)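 MPS profiling in S. cerevisiae of two library types built from selected 12-aa C-degron peptides (IN1, IN2, LN1, LN3, VN2, R1-R5, W1-W3, Atg1 and Rpa12 C-termini): saturation mutagenesis libraries and C-terminal +1 capping libraries (13 aa). Each peptide is fused to the C-terminus of a sfGFP-mCherry timer, after a GGGS linker. Cells are FACS-sorted into 8 mCherry/sfGFP bins and sequenced. PSI runs from 0 (unstable) to 1 (stable), measured once in wild type and in the das1Δ or doa10Δ background.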

The test system of series [2] is Saccharomyces cerevisiae. Briefly: protein stability index of tFT-peptide fusion in deletion strain of DAS1 (PSI (0-1 scale)); higher = more stable (slower turnover). The method, then: as §1
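Wherever protein stability index of tFT-peptide fusion in deletion strain of DAS1 is given: PSI is a weighted mean of each variant's read distribution over the sorted stability bins, computed only for variants having over 10 reads in total.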
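Wherever protein stability index of tFT-peptide fusion in wild type is given: PSI derived as read-weighted mean over the 8 sorting bins, only variants exceeding 10 total reads kept, mCherry placed adjacent to the peptide and sfGFP distal.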

As to AIWRVGLWRGAS, the protein stability index with Saccharomyces cerevisiae [1] is 0.405; in the series on Saccharomyces cerevisiae [2], 0.69.

Turning to ARTRVGLWRGAS, the protein stability index in the series with Saccharomyces cerevisiae [1] is 0.598; with Saccharomyces cerevisiae [2], 0.66.

With ARWRVGFWRGAS, the protein stability index in the series on Saccharomyces cerevisiae [1] was determined as 0.551; with Saccharomyces cerevisiae [2] it was 0.666.

On to ARWRVGLLRGAS, for which the protein stability index with Saccharomyces cerevisiae [1] came out at 0.652; in the series with Saccharomyces cerevisiae [2], 0.669.

ARWRVGLWRGAQ: the results for the protein stability index in the series on Saccharomyces cerevisiae [1] and in the series on Saccharomyces cerevisiae [2] were 0.411 and 0.679, respectively.

ARWRVGLWRGNS: the protein stability index is 0.553 with Saccharomyces cerevisiae [1] and 0.68 with Saccharomyces cerevisiae [2].

On to ARWRVGYWRGAS, for which the protein stability index worked out at 0.478 with Saccharomyces cerevisiae [1] and 0.691 in the series on Saccharomyces cerevisiae [2].

As for ARWRVSLWRGAS, the values for the protein stability index with Saccharomyces cerevisiae [1] and with Saccharomyces cerevisiae [2] were 0.268 and 0.687, respectively.

With CESCGYKFRTNN, the protein stability index in the series with Saccharomyces cerevisiae [1] worked out at 0.327; in the series with Saccharomyces cerevisiae [2], 0.681.

With CMSCGYKFRTNN, the protein stability index in the series on Saccharomyces cerevisiae [1] worked out at 0.228; with Saccharomyces cerevisiae [2] it was 0.71.

Consider CRGAVGGWRLVG, for which the values for the protein stability index with Saccharomyces cerevisiae [1] and in the series with Saccharomyces cerevisiae [2] were 0.163 and 0.647, respectively.

For the sequence CTCCGYKFRTNN, the figures for the protein stability index in the series on Saccharomyces cerevisiae [1] and in the series with Saccharomyces cerevisiae [2] were 0.294 and 0.676, respectively.

On to CTKCGYKFRTNN, for which the protein stability index amounted to 0.258 in the series on Saccharomyces cerevisiae [1] and 0.687 with Saccharomyces cerevisiae [2].

For CTNCGYKFRTNN, the values for the protein stability index with Saccharomyces cerevisiae [1] and with Saccharomyces cerevisiae [2] were 0.216 and 0.696, respectively.

As for CTSCGAKFRTNN, the protein stability index turned out to be 0.502 in the series with Saccharomyces cerevisiae [1] and 0.723 in the series with Saccharomyces cerevisiae [2].

On to CTSCGCKFRTNN, for which the figures for the protein stability index with Saccharomyces cerevisiae [1] and in the series on Saccharomyces cerevisiae [2] were 0.543 and 0.694, respectively.

Consider CTSCGLKFRTNN, for which the values for the protein stability index with Saccharomyces cerevisiae [1] and in the series on Saccharomyces cerevisiae [2] were 0.34 and 0.691, respectively.

Regarding CTSCGVKFRTNN, the results for the protein stability index in the series on Saccharomyces cerevisiae [1] and in the series on Saccharomyces cerevisiae [2] were 0.486 and 0.692, respectively.

For CTSCGYKCRTNN, the protein stability index in the series on Saccharomyces cerevisiae [1] was 0.601; with Saccharomyces cerevisiae [2], 0.661.

As to CTSCGYKFATNN, the protein stability index with Saccharomyces cerevisiae [1] worked out at 0.385; with Saccharomyces cerevisiae [2] it was 0.695.

Take CTSCGYKFHTNN: the protein stability index with Saccharomyces cerevisiae [1] is 0.429; with Saccharomyces cerevisiae [2], 0.713.

Regarding CTSCGYKFRDNN, the protein stability index in the series on Saccharomyces cerevisiae [1] is 0.673; in the series on Saccharomyces cerevisiae [2], 0.663.

Consider CTSCGYKFRQNN, for which the values for the protein stability index in the series with Saccharomyces cerevisiae [1] and with Saccharomyces cerevisiae [2] were 0.497 and 0.69, respectively.

Regarding CTSCGYKFRTCN, the results for the protein stability index in the series with Saccharomyces cerevisiae [1] and with Saccharomyces cerevisiae [2] were 0.18 and 0.702, respectively.

CTSCGYKFRTNF: the values for the protein stability index in the series with Saccharomyces cerevisiae [1] and in the series with Saccharomyces cerevisiae [2] were 0.417 and 0.712, respectively.

Turning to CTSCGYKFRTNNH, the figures for the protein stability index in the series on Saccharomyces cerevisiae [1] and in the series on Saccharomyces cerevisiae [2] were 0.687 and 0.706, respectively.

CTSCGYKFRTNNK: the values for the protein stability index in the series with Saccharomyces cerevisiae [1] and in the series with Saccharomyces cerevisiae [2] were 0.669 and 0.682, respectively.

As for CTSCGYKFRTNR, the protein stability index in the series with Saccharomyces cerevisiae [1] turned out to be 0.696; in the series with Saccharomyces cerevisiae [2] it was 0.692.

For CTSCGYKFRTNY, the protein stability index with Saccharomyces cerevisiae [1] came out at 0.611; in the series with Saccharomyces cerevisiae [2] it was 0.742.

Consider CTSCGYKFRTQN, for which the protein stability index in the series with Saccharomyces cerevisiae [1] was determined as 0.201; with Saccharomyces cerevisiae [2], 0.663.

Consider CTSCGYKFSTNN, for which the protein stability index with Saccharomyces cerevisiae [1] amounted to 0.684; with Saccharomyces cerevisiae [2], 0.713.

As for CTSCYYKFRTNN, the protein stability index stood at 0.199 in the series with Saccharomyces cerevisiae [1] and 0.639 in the series with Saccharomyces cerevisiae [2].

In the case of CTSEGYKFRTNN, the protein stability index in the series on Saccharomyces cerevisiae [1] stood at 0.507; in the series with Saccharomyces cerevisiae [2], 0.68.

With CTSQGYKFRTNN, the protein stability index with Saccharomyces cerevisiae [1] is 0.251; in the series with Saccharomyces cerevisiae [2] it was 0.678.

Turning to CTTCGYKFRTNN, the protein stability index in the series with Saccharomyces cerevisiae [1] was found to be 0.267; in the series with Saccharomyces cerevisiae [2], 0.677.

For the sequence DLIQPLPVQFLN, the protein stability index in the series on Saccharomyces cerevisiae [1] turned out to be 0.127; in the series on Saccharomyces cerevisiae [2] it was 0.59.

ERWRVGLWRGAS: the protein stability index is 0.378 with Saccharomyces cerevisiae [1] and 0.741 in the series on Saccharomyces cerevisiae [2].

The record behind these values is the supplement of paper PMC10724198.
